Laboratory results published in US20030103948A1 (NEORX, published 2003).

Target: T1, CD20 (human, UniProt P11836 1-297)
T1 construct: whole, on cells; also called CD20-positive Ramos cell line; Ramos cells
T1 sequence (looked up): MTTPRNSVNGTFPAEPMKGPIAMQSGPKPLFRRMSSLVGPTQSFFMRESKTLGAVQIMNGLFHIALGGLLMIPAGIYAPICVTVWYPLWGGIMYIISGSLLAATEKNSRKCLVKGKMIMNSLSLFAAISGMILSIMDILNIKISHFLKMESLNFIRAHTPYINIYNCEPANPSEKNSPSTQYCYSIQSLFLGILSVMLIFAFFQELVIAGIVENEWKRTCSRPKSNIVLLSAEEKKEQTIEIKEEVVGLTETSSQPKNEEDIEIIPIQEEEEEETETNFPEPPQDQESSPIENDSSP
Assay: saturation binding of radiolabeled antibody to Ramos cells (10^7 cells), nonlinear regression
Description: Avidity was determined using saturation binding experiments that measure specific binding of radiolabeled mAb or fusion protein (0.025-50 ng/ml) at equilibrium in the presence of excess antigen (10⁷ cells). Nonspecific binding was determined in the presence of excess cold mAb or fusion protein (50 μg/ml). […] The equilibrium dissociation constant (Kd) was calculated from nonlinear regression analysis of nM bound vs. nM radioligand using immunoreactivity-adjusted antibody concentrations.
Kd and Kₐ were calculated using nonlinear regression analysis of nM bound vs. nM radioligand.

B1: B9E9 mAb (antibody, V domains shown)
VH: QVQLVQSGAELVKPGASVKMSCKASGYTFTSYNMHWVKQTPGQGLEWIGAIYPGNGDTSYNQKFKGKATLTADKSSSTAYMQLSSLTSEDSAVYYCARAQLRPNYWYFDVWGAGTTVTVSS
VL: DIVLSQSPAILSASPGEKVTMTCRASSSVSYMHWYQQKPGSSPKPWIYATSNLASGVPARFSGSGSGTSYSLTISRVEAEDAATYYCQQWISNPPTFGAGTKLELK
modifications: Used unlabelled, fluorescein-labelled (FACS tracer) and radiolabelled (avidity assay).
notes: also called divalent B9E9 antibody; murine anti-CD20 antibody B9E9
Ka: 1.02e+08 M⁻¹
Kd: 9.75 nM
